Reference: article PMC11162469, “Discovery of RXFP2 genetic association in resistant hypertensive men and RXFP2 antagonists for the treatment of resistant hypertension” (Scientific Reports, 2024)

How the values were obtained:
[1] = target: T1, rat RXFP2 (Rattus norvegicus, UniProt F7EMH8); test: INSL3-stimulated CYP11B2 mRNA expression in H295R stably expressing rat RXFP2; type: cell-based; parameters: expressed in transfected cells; settings: INSL3 EC80 (3.5 nM), 48 h, qPCR; N = 2
Protocol: (§1) RXFP2 antagonists were added to H295R-rRXFP2 before addition of INSL3 EC80 (3.5 nM) for 48 h, whereupon the cells and supernatants were collected. CYP11B1 and CYP11B2 mRNA were determined by qPCR and the RXFP2 blocker potencies were calculated (Fig. 5a). Fifteen antibodies have IC50s < 50 nM, and three of the top antibodies (1F2, 4G6, and 2D4) were selected for evaluation in steroid hormone secretion assays by ELISA.
(§2) Data entered as XY table, with x = [Inhibitor] (nM) and y = CYP11B2 or CYP11B1 fold change.

[2] = Pharmacokinetic study of RXFP2 mAbs in rat; type: in vivo, Wistar Han rats
Protocol: For the pharmacokinetic study of RXFP2 mAbs in rat, 1G1, 2D4, 4B1, 4G6, 1F2, and 3F3 were prepared in phosphate buffered saline (0.100 mg/mL) with low endotoxin (≤ 0.76 EU/mL). Adult male Wistar Han rats (n = 3/mAb) were administered 1 mg/kg subcutaneously (10 mL/kg). Blood samples (100 µL) were collected in EDTA containing tubes at 0.25, 3, 6 24, 48, 96, 168 (day 7), 336 (day 14), 504 (day 21), and 672 (day 28) hours post dose, immediately centrifuged (6100 rpm), and 50 µL plasma stored at − 80 °C until assay. Rats maintained health throughout the study and were anesthetized (isoflurane to effect) and euthanized on day 28.
Frozen rat plasma samples were thawed and analyzed using a qualified analytical method based on sample dilution, followed by Electrochemiluminescence immunoassay analysis. The lower limit of quantification (LLQ) was 0.1 µg/mL using a 10 µL aliquot of 51-fold diluted rat plasma with a higher limit of quantification (HLQ) of 10 µg/mL. RXFP2 mAbs were captured with LDLa protein and detected with sulfo-tag labeled mouse anti-rat IgG2b. The computer systems that were used to acquire and quantify data included Gyrolab Workstation Version 8.1.5 and Watson LIMS version 7.6.1. Rat pharmacokinetic parameters were calculated by non-compartmental analysis (NCA) analysis using WinNonlin Phoenix 64 (version 8.3). Values are reported in mean ± standard deviation.

[3] = target: T1, rat RXFP2; test: INSL3-stimulated CYP11B1 mRNA expression in H295R stably expressing rat RXFP2; type: cell-based; parameters: expressed in transfected cells; settings: INSL3 EC80 (3.5 nM), 48 h, qPCR; N = 2
Protocol: as §1, §2

[4] = target: T2, rat RXFP1 (Rattus norvegicus, UniProt Q6R6I6); test: Relaxin-stimulated cAMP assay in HEK293 stably expressing rat RXFP1; settings: three-point selectivity screen, n = 2
T2 sequence (Q6R6I6 1-758): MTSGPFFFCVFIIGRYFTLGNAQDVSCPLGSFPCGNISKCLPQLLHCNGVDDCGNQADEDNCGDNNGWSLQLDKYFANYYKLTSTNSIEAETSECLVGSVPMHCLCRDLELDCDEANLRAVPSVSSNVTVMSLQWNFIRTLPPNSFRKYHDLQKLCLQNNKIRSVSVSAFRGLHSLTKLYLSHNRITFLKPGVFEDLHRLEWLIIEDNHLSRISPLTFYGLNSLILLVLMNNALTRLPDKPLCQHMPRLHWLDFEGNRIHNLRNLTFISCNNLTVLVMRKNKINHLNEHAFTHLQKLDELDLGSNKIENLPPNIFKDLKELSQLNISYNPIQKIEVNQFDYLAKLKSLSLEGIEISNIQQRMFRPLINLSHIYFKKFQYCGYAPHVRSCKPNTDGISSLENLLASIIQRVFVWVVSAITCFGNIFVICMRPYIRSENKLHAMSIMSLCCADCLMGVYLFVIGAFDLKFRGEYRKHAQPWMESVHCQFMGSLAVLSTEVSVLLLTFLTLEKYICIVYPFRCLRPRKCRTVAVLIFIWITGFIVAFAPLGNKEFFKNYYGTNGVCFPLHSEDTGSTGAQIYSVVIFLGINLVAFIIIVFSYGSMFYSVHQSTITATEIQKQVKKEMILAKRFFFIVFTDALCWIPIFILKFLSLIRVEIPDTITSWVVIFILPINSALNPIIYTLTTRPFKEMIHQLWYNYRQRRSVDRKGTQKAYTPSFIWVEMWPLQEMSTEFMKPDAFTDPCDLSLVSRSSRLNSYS

[5] = target: T3, human LDLa-linker (Homo sapiens, UniProt Q8WXD0); test: Biacore S200 binding to human LDLa-linker protein
T3 construct: human LDLa linker [huRXFP2-LDLa-linker(38-105)-ratFc-8XHIS]; enterokinase cleavage site (C); rat Fc (C, cleaved yes); 8xHis (C, cleaved yes); made in house; host or cells: Expi293
T3 sequence (Q8WXD0 38-105): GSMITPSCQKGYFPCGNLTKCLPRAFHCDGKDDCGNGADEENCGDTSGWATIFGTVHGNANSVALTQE
Protocol: Goat anti Rat Fc gamma fragment specific (Jackson Immunoresearch, 112-005-071) was immobilized at 30 µg/mL to a Series S CM5 chip (Cytiva Life Sciences). In three separate runs, twenty different purified recombinant rat anti RXFP2 antibodies were then captured to the CM5 chip at a concentration of 5 µg/mL. The antibody panel was captured; rat LDLa-linker or human LDLa-linker protein was flowed as analyte at the following concentrations: 20 nM, 10 nM, 5 nM, 2.5 nM, […], and 0 nM. Antibody kinetics were evaluated using a 1:1 fit model (Biacore S200).

[6] = target: T1, rat RXFP2; test: Cortisol secretion (ELISA) in H295R stably expressing rat RXFP2; type: cell-based; parameters: expressed in transfected cells; settings: H295R-rRXFP2, 3.5 nM INSL3, 48 h, read-out: IC50 on INSL3-induced cortisol release
Protocol: as §1
The day after seeding, H295R cells were treated and incubated for 48 h before supernatants and cell lysates were collected. Treatments included INSL3, IgG, 1F2, and 4G6 at 0.035 pM–3.5 µM, 2D4 at 0.01 nM–1 uM, or phosphate buffered saline control. In RXFP2 antagonist assays, 3.5 nM INSL3 was used as the stimulus. Cortisol present in the adrenal cell supernatant at 48 h post treatment was detected by ELISA (R&D KGE008B). Sample dilution was optimized at 1/90 using a standard curve. Aldosterone was below the limit of detection by ELISA (R&D KGE016) and required liquid–liquid extraction (LLE) twice using methyl tetra butyl ether. Post extraction samples were dried (SPE Nitrogen dryer) and reconstituted for ELISA analysis. All samples were run in duplicates.

[7] = male Wistar Han rats, 1 mg/kg s.c., n = 3, mean ± SD

T1 sequence (F7EMH8 20-737): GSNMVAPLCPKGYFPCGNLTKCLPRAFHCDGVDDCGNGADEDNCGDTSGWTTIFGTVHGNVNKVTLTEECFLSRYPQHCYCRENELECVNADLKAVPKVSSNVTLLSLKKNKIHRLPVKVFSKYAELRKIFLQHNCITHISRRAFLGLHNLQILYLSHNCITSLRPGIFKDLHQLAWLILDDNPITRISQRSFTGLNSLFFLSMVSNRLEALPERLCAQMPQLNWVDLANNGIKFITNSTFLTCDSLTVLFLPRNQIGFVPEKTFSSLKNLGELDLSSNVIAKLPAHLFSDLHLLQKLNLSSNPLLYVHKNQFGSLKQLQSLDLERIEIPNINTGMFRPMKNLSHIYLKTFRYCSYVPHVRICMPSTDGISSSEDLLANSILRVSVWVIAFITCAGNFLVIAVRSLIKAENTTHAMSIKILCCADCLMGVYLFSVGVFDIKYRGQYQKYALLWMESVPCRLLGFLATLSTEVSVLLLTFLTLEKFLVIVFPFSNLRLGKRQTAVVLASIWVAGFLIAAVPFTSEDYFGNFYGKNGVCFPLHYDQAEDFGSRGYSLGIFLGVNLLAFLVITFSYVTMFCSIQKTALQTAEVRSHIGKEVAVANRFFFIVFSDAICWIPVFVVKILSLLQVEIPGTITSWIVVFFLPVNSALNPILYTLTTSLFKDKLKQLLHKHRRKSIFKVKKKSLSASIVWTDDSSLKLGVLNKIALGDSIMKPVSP

B1: 4G6: Human/rat cross-reactive RXFP2 monoclonal antibody, rat IgG2b backbone; binds the LDLa domain (antibody, V domains shown)
VH: EVQLQQSGPELVKPGASVKLSCKASGYTFTSYVMHWVKQKPEQGLEWIGYKNPSNDGIKYNEKFKGKATLTSDKSSNIAYMELFSLTSEDSAVYYCARSDFGSVWAMDYWGQGTSVTVSS
VL: SIVMTQTPKFLLVSAGDRVTITCKASQSVNDDIVWYQQKPGQSPKLLIYYASNRYTGVPDRFTGSGYGTDFTFTISTVQAGDLAVYFCQQDYSSPFTFGSGTKLEIK
- IC50 [1]: 0.1 nM
- half-life, extrapolated values ([2]; Wistar Han rats, 1 mg/kg sc., over 28 days): ≥ 11 days
- estimated dose to achieve tenfold higher IC50 HEK-rRXFP2 cAMP activity for approximately 28 days in rat ([2]; from trough concentration, dose-linearity assumed): approximately 30 mg/kg
- AUClast [2, 7]: 1350 ± 125 µg·h/mL
- Cmax [2, 7]: 4150 ± 1200 ng/mL
- Tmax [2, 7]: 9.33 ± 4.04 days
- IC50 [3]: 0.33 nM
- blockade of rRXFP1 (relaxin-stimulated cAMP) [4]: did not block
- cross reactivity to the human LDLa-linker [5]: cross reactivity
- IC50 [6]: 0.26 nM
